The values that follow come from publication PMC7793301, “Assembly of infectious enteroviruses depends on multiple, conserved genomic RNA-coat protein contacts” (PLoS Pathogens, 2020).

To fix the notation:
T1: EV-E capsid protein VP1 (enterovirus-E (EV-E), UniProt P12915 560-840)
T1 construct: VP1, cut product of the enterovirus-E (formerly bovine enterovirus) polyprotein; genome NC_001859; numbers count on: the mature VP1; The N-terminal arm is not fully built in the model; source: EV-E propagated in BHK cells; virions purified (sucrose cushion, sucrose gradient)
T1 sequence: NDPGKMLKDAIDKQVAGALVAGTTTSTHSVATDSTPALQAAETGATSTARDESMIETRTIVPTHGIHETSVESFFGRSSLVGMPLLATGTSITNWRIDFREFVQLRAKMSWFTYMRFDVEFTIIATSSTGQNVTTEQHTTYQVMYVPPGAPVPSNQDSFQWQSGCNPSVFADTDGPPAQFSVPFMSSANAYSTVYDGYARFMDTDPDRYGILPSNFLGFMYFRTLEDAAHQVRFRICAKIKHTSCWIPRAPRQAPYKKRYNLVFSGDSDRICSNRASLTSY

B1: EV-E capsid protein VP3 (natural protein)
chain: GLPTKPGPGSYQFMTTDEDCSPCILPDFQPTLEIFIPGKVNNLLEIAQVESILEANNREGVEGVERYVIPVSVQDALDAQIYALRLELGGSGPLSSSLLGTLAKHYTQWSGSVEITCMFTGTFMTTGKVLLAYTPPGGDMPRNREEAMLGTHVVWDFGLQSSITLVIPWISASHFRGVSNDDVLNYQYYAAGHVTIWYQTNMVIPPGFPNTAGIIMMIAAQPNFSFRIQKDREDMTQTAILQ
notes: VP3, cut product of the enterovirus-E polyprotein; genome NC_001859; numbers count on: the mature VP3; source: EV-E propagated in BHK cells; virions purified (sucrose cushion, sucrose gradient)
B2: EV-E capsid protein VP2 (natural protein)
chain: SPSAEACGYSDRVAQLTLGNSTITTQEAANICVAYGCWPAKLSDTDATSVDKPTEPGVSADAFYTLRSKPWQADSKGWYWKLPDALNNTGMFGQNAQFHYIYRGGWAVHVQCNATKFHQGTLLVLAIPEHQIATQEQPAFDRTMPGSEGGTFQEPFWLEDGTSLGNSLIYPHQWINLRTNNSATLILPYVNAIPMDSAIRHSNWTLAIIPVAPLKYAAETTPLVPITVTIAPMETEYNGLRRAIASNQ
notes: VP2, cut product of VP0 of the enterovirus-E polyprotein; genome NC_001859; modelled from residue Y9; numbers count on: the mature VP2; source: EV-E propagated in BHK cells; virions purified (sucrose cushion, sucrose gradient)

In one experiment the target is T1, EV-E capsid protein VP1. The experiment can be described thus: cryo-EM structure; purified EV-E virions in PBS; single particle analysis with icosahedral symmetry, ~2.2 Å; also symmetry expansion and focused classification. The settings on record: both partners purified.
The experiment “EV-E capsid protein VP2” has as its target B2. The description is as above. To be noted: both partners purified.

B1: the binding result with EV-E capsid protein VP1 and in the experiment with EV-E capsid protein VP2 was “binds” in each case.
As for B2, in the experiment with EV-E capsid protein VP1, the binding result is reported as “binds”.
